From patent US20240182561A1 (Regeneron, published 2024)
Read-outs that look alike come from different tables or passages of the source.

Columns and labels:
[1] = molecular target: T1, human CACNG1 expressed on cells (human, UniProt Q06432 1-222); experiment: cell-based or functional assay
[2] = molecular target: T1, human CACNG1 expressed on cells; experiment: cell-based or functional assay; remark: listed apart in the source
[3] = molecular target: T1, human CACNG1 expressed on cells; experiment: cell-based or functional assay; remark: listed apart in the source
[4] = molecular target: T1, human CACNG1 expressed on cells; experiment: live myotubes (human myotubes per paragraph 866) incubated with antibody, detection with Alexa 647-conjugated F(ab')2 secondary antibody, Hoechst counterstain, fluorescence imaging; titration 100 to 0.02 nM and 0 nM
[5] = molecular target: T1, human CACNG1 expressed on cells; experiment: cell-based or functional assay; remark: listed apart in the source
[6] = molecular target: T2, mouse CACNG1 expressed on cells (mouse, UniProt O70578 1-223); experiment: cell-based or functional assay
T2 sequence (looked up): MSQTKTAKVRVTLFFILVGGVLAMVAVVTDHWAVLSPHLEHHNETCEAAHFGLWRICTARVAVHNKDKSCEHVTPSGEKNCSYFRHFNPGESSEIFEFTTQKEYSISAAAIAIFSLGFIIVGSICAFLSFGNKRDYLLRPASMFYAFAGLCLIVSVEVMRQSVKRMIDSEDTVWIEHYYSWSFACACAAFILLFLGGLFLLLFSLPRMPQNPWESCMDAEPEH

[7] = molecular target: T1, human CACNG1 expressed on cells; experiment: cell-based or functional assay; remark: listed apart in the source
[8] = molecular target: T2, mouse CACNG1 expressed on cells; experiment: imaging cell binding, HEK293/mCACNG1
Method in brief: (§1)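 Read-out: RFU from 10× high-content images after fixation and Hoechst nuclear stain. Cells: HuSKM myotubes at day 6 of differentiation, C2C12 myotubes at day 3, HEK293/hCACNG1 and HEK293/mCACNG1 seeded at 10,000 cells/well and grown overnight.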

[9] = molecular target: T2, mouse CACNG1 expressed on cells; experiment: imaging cell binding, C2C12 mouse myotubes
Method in brief: as §1

[10] = molecular target: T1, human CACNG1 expressed on cells; experiment: cell-based or functional assay; remark: listed apart in the source
[11] = molecular target: T1, human CACNG1 expressed on cells; experiment: imaging cell binding, HEK293/hCACNG1
Method in brief: as §1

[12] = molecular target: T1, human CACNG1 expressed on cells; experiment: imaging cell binding, HuSKM myotubes
Method in brief: as §1

[13] = molecular target: T1, human CACNG1 expressed on cells; experiment: cell-based or functional assay; remark: listed apart in the source
[14] = molecular target: T2, mouse CACNG1 expressed on cells; experiment: biosensor conjugate imaging (AF647), 6.7 nM, C2C12 mouse myotubes
Experimental: The growth media was changed to MyoTonic Differentiation Media (Cook Myosite Cat #MD-5555) and replaced every 2 days. C2C12 mouse myoblasts were maintained in DMEM with 10% FBS and 1% penicillin-streptomycin supplement and grown in a 37° C. incubator with 5% CO₂. […] After 24 hours, growth media was replaced with differentiation media (DMEM with 2% horse serum) and placed in a 37° C. incubator with 7.5% CO₂.

[15] = molecular target: T1, human CACNG1 expressed on cells; experiment: cell-based or functional assay; remark: listed apart in the source
[16] = molecular target: T1, human CACNG1 expressed on cells; experiment: cell-based or functional assay; remark: listed apart in the source
[17] = molecular target: T1, human CACNG1 expressed on cells; experiment: cell-based or functional assay; remark: listed apart in the source
[18] = molecular target: T3, nanodisc embedded human CACNG1 expressed with a C-terminal PADRE-Flag-His tag (human, UniProt Q06432 1-222); experiment: SPR, anti-His-captured nanodisc, 25 C
T3 construct: Captured on an anti-His Biacore surface; also called human CACNG1 nanodisc; CACNG1 nanodisc; not shown: C-terminal tag
Method in brief: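 Biacore T200, anti-His-captured CACNG1 nanodisc, HBS-N++ buffer pH 7.4 with 1 mM CaCl₂/0.5 mM MgCl₂; antibodies 300–12 nM (5-fold) at 30 μL/min, 2 min association, 5 min dissociation.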

[19] = molecular target: T1, human CACNG1 expressed on cells; experiment: imaging cell binding, HuSKM myotubes; remark: listed apart in the source
Experimental: (§2) HuSKM were seeded in collagen-coated 96-well plates (Greiner Bio-One #655956) at 8,500 cells/well and grown for 24 hours. The growth media was changed to MyoTonic Differentiation Media (Cook Myosite Cat #MD-5555) and replaced every 2 days. Myotubes were assayed after 6 days of differentiation. C2C12 mouse myoblasts were maintained in DMEM with 10% FBS and 1% penicillin-streptomycin supplement and grown in a 37° C. incubator with 5% CO₂. C2C12 cells were seeded in collagen-coated 96-well plates (Greiner Bio-One #655956) at 10,000 cells/well for the cell binding assay and 5,000 cells/well for the cell killing assay. After 24 hours, growth media was replaced with differentiation media (DMEM with 2% horse serum) and placed in a 37° C. incubator with 7.5% CO₂. C2C12 myotubes were assayed after 3 days of differentiation. HEK293/hCACNG1, HEK293/mCACNG1, and HEK293 cells were seeded at 10,000 cells (cell binding assay) or 2,000 (cell killing assay) per well in 96-well black collagen coated plates (Greiner Bio-One, cat #655956) in complete growth media and grown overnight at 37° C. in 5% CO₂.
(§3) Relative binding of anti-CACNG1 antibodies was assessed across the entire panel of cell lines via imaging analysis. […] After one wash with antibody dilution buffer, samples were fixed in CytoFix (BD Biosciences, Cat #554655) diluted 1:1 in PBS and supplemented with a 1:2000 dilution of Hoechst 33342 (Thermo, Cat #H1399) for 20 minutes on ice. Images were acquired with a 10× objective on the Opera Phenix (Perkin Elmer) and relative fluorescence units (RFU) was determined using Harmony software (Perkin Elmer).

[20] = molecular target: T1, human CACNG1 expressed on cells; experiment: imaging cell binding, HEK293/hCACNG1; remark: listed apart in the source
Experimental: as §2, §3

[21] = molecular target: T2, mouse CACNG1 expressed on cells; experiment: imaging cell binding, C2C12 mouse myotubes; remark: listed apart in the source
Experimental: as §2, §3

[22] = molecular target: T1, human CACNG1 expressed on cells; experiment: cell-based or functional assay; remark: listed apart in the source

T3 sequence (Q06432 whole entry): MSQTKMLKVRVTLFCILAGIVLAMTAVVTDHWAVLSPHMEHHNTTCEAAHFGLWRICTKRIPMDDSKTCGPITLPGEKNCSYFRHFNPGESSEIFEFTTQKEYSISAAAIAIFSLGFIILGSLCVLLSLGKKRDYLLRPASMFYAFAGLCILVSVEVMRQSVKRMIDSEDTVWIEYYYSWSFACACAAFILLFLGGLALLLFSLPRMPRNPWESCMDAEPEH
T1 sequence (Q06432 whole entry): as above

B1: REGN14573-M3004 (antibody, human IgG1, lambda, N297Q)
heavy chain: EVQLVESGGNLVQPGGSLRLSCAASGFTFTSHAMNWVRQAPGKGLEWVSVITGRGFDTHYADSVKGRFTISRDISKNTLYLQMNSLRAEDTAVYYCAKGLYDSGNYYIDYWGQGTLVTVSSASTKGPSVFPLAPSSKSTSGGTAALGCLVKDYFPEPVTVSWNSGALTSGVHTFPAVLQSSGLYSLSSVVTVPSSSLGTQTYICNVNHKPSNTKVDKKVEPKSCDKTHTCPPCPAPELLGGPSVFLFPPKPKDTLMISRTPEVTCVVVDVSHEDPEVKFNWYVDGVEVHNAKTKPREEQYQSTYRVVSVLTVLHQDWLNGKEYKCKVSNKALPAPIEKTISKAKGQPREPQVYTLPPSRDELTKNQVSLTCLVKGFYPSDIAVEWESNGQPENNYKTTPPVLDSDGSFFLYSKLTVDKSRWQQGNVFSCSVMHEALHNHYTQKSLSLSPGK
light chain: QSVLTQPPSVSAAPGQKVTISCSGSSSNIGNNYVSWYQQLPGTAPKLLIYDNNKRPSGIPDRFSGSKSGTSATLGITGLQTGDEADYYCGTWDLSLSFNWVFGGGTKLTVLGQPKAAPSVTLFPPSSEELQANKATLVCLISDFYPGAVTVAWKADSSPVKAGVETTTPSKQSNNKYAASSYLSLTPEQWKSHRSYSCQVTHEGSTVEKTVAPTECS
modifications: N297Q; DHT linker-payload M3004 conjugated, DAR about 4
[1]
  EC50 of androgen receptor luciferase reporter activation (RLU) by the DHT conjugate REGN14573-M3004 in hCACNG1.AR.Luc LNCaP cells, 48 hours; concentration adjusted for DAR: 213 nM
[2]
  EC50 of androgen receptor luciferase reporter activation (RLU) by the DHT conjugate REGN14573-M3004 in hCACNG1.AR.Luc LNCaP cells, 24 hours; concentration adjusted for DAR: 214 nM
[3]
  EC50 of androgen receptor luciferase reporter activation (RLU) by the DHT conjugate REGN14573-M3004 in hCACNG1.AR.Luc LNCaP cells, 72 hours; concentration adjusted for DAR: 185 nM

B2: REGN7854 (antibody, human IgG4 S228P, kappa, V domains shown)
VH: QVQLVQSGAEVKKPGASVKVSCKASGYAFTTYGITWVRQAPGQGLEWMGWISAYNGNTNYAEKVQGRFTMTTDTSTNTAYMELRSLRSDDTAVYFCARKGHYGSGTYYNPFGFDFWGQGTMVTVSS
VL: EIVLTQSPGTLSLSPGERATLSCRASQSVSSSYLAWYQQKPGQAPRLLIYGASSRATGIPDRFSGSGSGTDFTLTISRLEPEDFALYFCQQYYGSPWTFGQGTKVEIKR
notes: also called CACNG1 Ab
[4]
  binding result: binds

B3: REGN5972 (antibody, V domains shown)
VH: QVQLVESGGGVVQPGRSLRLSCTASGFTFRSYGMHWVRQAPGKGLEWVSVIWIDGNNIYYADSVKGRFTISRDNSKNTLYLQMDSLRAEDTAVYYCARRLAITSAAPFDYWGQGTLVTVSS
VL: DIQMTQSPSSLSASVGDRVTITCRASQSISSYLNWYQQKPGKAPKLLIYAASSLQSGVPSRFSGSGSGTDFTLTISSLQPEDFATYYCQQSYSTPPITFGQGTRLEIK
notes: also called H4H31265P2/REGN5972; CACNG1 hIgG1 antibody
[5]
  % KILL, indirect cell killing, HEK293/hCACNG1: 95.4%
  % KILL, indirect cell killing, HuSKM: 97.4%
  EC50/IC50, indirect cell killing, HEK293/hCACNG1: 0.00139 nM
  EC50/IC50, indirect cell killing, HuSKM: 0.585 nM
[6]
  % KILL, indirect cell killing, C2C12: 0%
  % KILL, indirect cell killing, HEK293/mCACNG1: 11%
  EC50/IC50, indirect cell killing, C2C12: > 10 nM
  EC50/IC50, indirect cell killing, HEK293/mCACNG1: > 1 nM
[7]
  EC50 of androgen receptor luciferase reporter activation (RLU) by the DHT conjugate REGN5972-M3004 in hCACNG1.AR.Luc LNCaP cells, 72 hours; concentration adjusted for DAR: 7.79 nM
[8]
  EC50: > 100 nM
  S/N: 5.3 fold
[9]
  S/N: 1.6 fold
[10]
  EC50 of androgen receptor luciferase reporter activation (RLU) by the DHT conjugate REGN5972-M3004 in hCACNG1.AR.Luc LNCaP cells, 24 hours; concentration adjusted for DAR: 19 nM
[11]
  EC50: 6.6 nM
  S/N: 172 fold
[12]
  EC50: 2.9 nM
  S/N: 313 fold
[13]
  EC50 of androgen receptor luciferase reporter activation (RLU) by the DHT conjugate REGN5972-M3004 in hCACNG1.AR.Luc LNCaP cells, 48 hours; concentration adjusted for DAR: 6.49 nM

B4: REGN14570 (antibody, human IgG1, kappa, N297Q)
heavy: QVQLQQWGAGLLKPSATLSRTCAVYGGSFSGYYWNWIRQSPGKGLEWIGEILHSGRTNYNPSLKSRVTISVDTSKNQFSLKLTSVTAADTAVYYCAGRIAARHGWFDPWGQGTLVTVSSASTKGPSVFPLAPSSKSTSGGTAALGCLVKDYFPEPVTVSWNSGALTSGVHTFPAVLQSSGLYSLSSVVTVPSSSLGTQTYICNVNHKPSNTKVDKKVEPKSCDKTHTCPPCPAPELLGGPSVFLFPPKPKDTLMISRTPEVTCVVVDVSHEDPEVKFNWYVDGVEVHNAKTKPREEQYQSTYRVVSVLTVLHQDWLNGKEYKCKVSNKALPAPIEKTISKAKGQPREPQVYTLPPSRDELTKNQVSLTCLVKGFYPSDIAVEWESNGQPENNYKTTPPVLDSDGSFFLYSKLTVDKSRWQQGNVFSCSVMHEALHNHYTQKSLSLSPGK
light: DIQMTQSPSSVSTSVGDRVTISCRASQDIRKWLAWYQQKPGKAPKLLIYATSSLQSGVPSRFSGSGSGTDFTLTISSLQPEDFATYFCQQANSFPFTFGQGTKLEIKRTVAAPSVFIFPPSDEQLKSGTASVVCLLNNFYPREAKVQWKVDNALQSGNSQESVTEQDSKDSTYSLSSTLTLSKADYEKHKVYACEVTHQGLSSPVTKSFNRGEC
modifications: conjugated to the M378-Biosensor probe (Example 15) or to budesonide linker-payload M404-M3123, DAR 4.1 (Example 14); attachment residues not stated for these lots
notes: hIgG1 N297Q; Tested only as conjugates; also called REGN14570-M378-Biosensor; REGN14570-M404-M3123
[14]
  binding result: binds
[15]
  EC50 of androgen receptor luciferase reporter activation (RLU) by the DHT conjugate REGN14570-M3004 in hCACNG1.AR.Luc LNCaP cells, 72 hours; concentration adjusted for DAR: 6.65 nM
[16]
  EC50 of androgen receptor luciferase reporter activation (RLU) by the DHT conjugate REGN14570-M3004 in hCACNG1.AR.Luc LNCaP cells, 24 hours; concentration adjusted for DAR: 2 nM
[17]
  EC50 of androgen receptor luciferase reporter activation (RLU) by the DHT conjugate REGN14570-M3004 in hCACNG1.AR.Luc LNCaP cells, 48 hours; concentration adjusted for DAR: 5.83 nM

B5: REGN9909 (antibody, mouse IgG2a, kappa, V domains shown)
VH: EVQLLESGGGLVQPGGSLRLSCAASGFTFNNYGMSWVRQGPGKGLEWVSSISGSGGTTFYADSVKGRFTISRDNSKNTLYLQMNSLRAEDTAVYYCGKGGYCSSSGCRHYGMDVWGQGTTVTVSS
VL: QSVLTQPPSASGTPGQRVTISCSGSSSNIGNNYIYWYQRLPGTTPKLLIYRNNQRPSGVPDRFSGSKSGTSASLAISGLRSEDEADYYCAAWDDTLSGYVFGTGTKVTVLR
notes: mIgG2a
[18]
  Kd: 4.15 nM
  koff: 0.00137 s⁻¹
  kon: 331000 M⁻¹ s⁻¹
  mAb bound at 300 nM: 22 RU
  t1/2: 8.4 min
[19]
  EC50: 14 nM
  S/N: 171 fold
[20]
  EC50: 1.6 nM
  S/N: 5.4 fold
[5]
  % KILL, indirect cell killing, HEK293/hCACNG1: 95.2%
  % KILL, indirect cell killing, HuSKM: 99.5%
  EC50/IC50, indirect cell killing, HEK293/hCACNG1: 0.00235 nM
  EC50/IC50, indirect cell killing, HuSKM: 0.0183 nM
[6]
  % KILL, indirect cell killing, HEK293/mCACNG1: 88.5%
  EC50/IC50, indirect cell killing, HEK293/mCACNG1: 0.0612 nM
[21]
  EC50: 8.3 nM
  S/N: 4.2 fold
[22]
  EC50/IC50, indirect cell killing, HuSKM: 0.00968 nM
[12]
  EC50: 6.51 nM
  S/N: 141 fold
